Laboratory results as given in patent publication US20030148958A1 (PROCTER AND GAMBLE, published 2003).

Tests used:
[1] = molecular target: T1, corticotropin releasing factor 2 receptor; test: cell-based or functional assay
T1 sequence (Q13324 whole entry, species assumed, looked up): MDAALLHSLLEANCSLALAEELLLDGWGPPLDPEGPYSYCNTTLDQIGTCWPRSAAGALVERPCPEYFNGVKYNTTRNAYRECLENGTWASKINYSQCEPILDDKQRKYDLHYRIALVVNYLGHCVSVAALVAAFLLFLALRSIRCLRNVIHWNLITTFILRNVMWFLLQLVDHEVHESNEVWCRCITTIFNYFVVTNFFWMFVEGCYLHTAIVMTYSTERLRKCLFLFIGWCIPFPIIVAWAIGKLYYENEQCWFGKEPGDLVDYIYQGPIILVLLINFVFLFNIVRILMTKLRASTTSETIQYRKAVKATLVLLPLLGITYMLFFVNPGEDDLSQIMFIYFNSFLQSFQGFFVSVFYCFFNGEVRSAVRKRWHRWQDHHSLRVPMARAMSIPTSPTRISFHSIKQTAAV

[2] = molecular target: corticotropin releasing factor 1 receptor; test: cell-based or functional assay
Wherever CRF1R Emax is given: reference of the scale not given here.
Wherever CRF2R Emax is given: reference of the scale not given here.

In the case of ZGPPISIDLPFQLLRKMIEIEKQEKEKQQATTNARLLDTV (C-terminal amide) [SEQ ID NO 20], the “CRF2R EC50” value [1] is reported as 7.81 nM, the “CRF2R Emax” value [1] is reported as 99% and the “CRF1R EC50” value [2] is reported as 906 nM. For the same binder, the “CRF1R Emax” value [2] was 60%.

In the case of ZGPPISIDLPFQLLRKMIEIEKQEKEKQQATTNARLLATV (C-terminal amide) [SEQ ID NO 21], the “CRF2R EC50” value [1] is reported as 8.46 nM, the “CRF2R Emax” value [1] is reported as 96% and the “CRF1R EC50” value [2] is reported as 908 nM. The “CRF1R Emax” value [2] was 88%.

ZGPPISIDLPQLLLRKMIEIEKQEKEKQQAANNRLLLDTI (C-terminal amide) [SEQ ID NO 196] was tested, and the “CRF2R EC50” value [1] was 27.7 nM, the “CRF2R Emax” value [1] was 97% and the “CRF1R EC50” value [2] was 447 nM. The “CRF1R Emax” value [2] was 96%.

ZGPPISIDLPQHLLRKMIEIEKQEKEKQQAANNRLLLDTI (C-terminal amide) [SEQ ID NO 207] was tested, and the “CRF2R EC50” value [1] was 61.4 nM, the “CRF2R Emax” value [1] was 96% and the “CRF1R EC50” value [2] was 466 nM. The “CRF1R Emax” value [2] was 88%.

With ZGPPISIDLPYTLLRKMIEIEKQEKEKQQAANNRLLLDTI (C-terminal amide) [SEQ ID NO 200] the “CRF2R EC50” value [1] was 8.8 nM, the “CRF2R Emax” value [1] was 100% and the “CRF1R EC50” value [2] was 188 nM. The “CRF1R Emax” value [2] was 99%.

For ZGPPISIDLPWQLLRKMIEIEKQEKEKQQAANNRLLLDTI (C-terminal amide) [SEQ ID NO 210], the “CRF2R EC50” value [1] was 10.2 nM, the “CRF2R Emax” value [1] was 97% and the “CRF1R EC50” value [2] was 43.5 nM. The “CRF1R Emax” value [2] was 90%.

For ZGPPISIDLPAHLLRKMIEIEKQEKEKQQAANNRLLLDTI (C-terminal amide) [SEQ ID NO 206], the “CRF2R EC50” value [1] was 30.5 nM, the “CRF2R Emax” value [1] was 97% and the “CRF1R EC50” value [2] was 696 nM. The “CRF1R Emax” value [2] was 97%.

In the case of ZGPPISIDLPYILLRKMIEIEKQEKEKQQAANNRLLLDTI (C-terminal amide) [SEQ ID NO 204], the “CRF2R EC50” value [1] is reported as 3.6 nM, the “CRF2R Emax” value [1] is reported as 93% and the “CRF1R EC50” value [2] is reported as 32.1 nM. For the same binder, the “CRF1R Emax” value [2] was 74%.

In the case of ZGPPISIDLPYLLLRKMIEIEKQEKEKQQAANNRLLLDTI (C-terminal amide) [SEQ ID NO 203], the “CRF2R EC50” value [1] is reported as 5.2 nM, the “CRF2R Emax” value [1] is reported as 94% and the “CRF1R EC50” value [2] is reported as 76.2 nM. The “CRF1R Emax” value [2] was 86%.

With ZGPPISIDLPYHLLRKMIEIEKQEKEKQQAANNRLLLDTI (C-terminal amide) [SEQ ID NO 208] the “CRF2R EC50” value [1] was 5.6 nM, the “CRF2R Emax” value [1] was 88% and the “CRF1R EC50” value [2] was 64.9 nM. The “CRF1R Emax” value [2] was 81%.

With ZGPPISIDLPYVLLRKMIEIEKQEKEKQQAANNRLLLDTI (C-terminal amide) [SEQ ID NO 201] the “CRF2R EC50” value [1] was 5 nM, the “CRF2R Emax” value [1] was 100% and the “CRF1R EC50” value [2] was 99.6 nM. The “CRF1R Emax” value [2] was 80%.

ZGPPISIDLPYQLLRKMIEIEKQEKEKQQAANNRLLLDTI (C-terminal amide) [SEQ ID NO 202] was tested, and the “CRF2R EC50” value [1] was 8.7 nM, the “CRF2R Emax” value [1] was 99% and the “CRF1R EC50” value [2] was 404 nM. The “CRF1R Emax” value [2] was 100%.

In the case of ZGPPISIDLPWHLLRKMIEIEKQEKEKQQAANNRLLLDTI (C-terminal amide) [SEQ ID NO 209], the “CRF2R EC50” value [1] is reported as 7.4 nM, the “CRF2R Emax” value [1] is reported as 93% and the “CRF1R EC50” value [2] is reported as 26.4 nM. For the same binder, the “CRF1R Emax” value [2] was 80%.

In the case of ZGPPISIDLPQILLRKMIEIEKQEKEKQQAANNRLLLDTI (C-terminal amide) [SEQ ID NO 199], the “CRF2R EC50” value [1] is reported as 8.5 nM, the “CRF2R Emax” value [1] is reported as 92% and the “CRF1R EC50” value [2] is reported as 706 nM. The “CRF1R Emax” value [2] was 93%.

In the case of ZGPPISIDLPHHLLRKMIEIEKQEKEKQQAANNRLLLDTI (C-terminal amide) [SEQ ID NO 205], the “CRF2R EC50” value [1] is reported as 25 nM, the “CRF2R Emax” value [1] is reported as 93% and the “CRF1R EC50” value [2] is reported as 126 nM. For the same binder, the “CRF1R Emax” value [2] was 88%.
